T1: FZD9 CRD (Homo sapiens, UniProt O00144)
T1 construct: G35-A161; GPI anchor signal (C); expressed in transfected cells; host or cells: CHO cells, lentiviral pLenti-puro
T1 sequence (O00144 35-161): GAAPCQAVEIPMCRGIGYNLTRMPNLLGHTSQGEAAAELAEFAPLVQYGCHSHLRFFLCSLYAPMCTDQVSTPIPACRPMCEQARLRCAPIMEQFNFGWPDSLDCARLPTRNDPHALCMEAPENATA

T2: FZD5 CRD (Homo sapiens, UniProt Q13467)
T2 construct: K29-T156; GPI anchor signal (C); expressed in transfected cells; host or cells: CHO cells, lentiviral pLenti-puro
T2 sequence (Q13467 29-156): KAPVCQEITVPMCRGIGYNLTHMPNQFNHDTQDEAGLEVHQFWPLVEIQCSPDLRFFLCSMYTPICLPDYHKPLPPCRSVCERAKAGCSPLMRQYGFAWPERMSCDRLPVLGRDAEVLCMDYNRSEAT


Legend:
[1] = system: CHO cells not expressing Frizzled CRD; assay: Flow cytometry of anti-FZD5 Fab binding to CHO cells not expressing Frizzled CRD (background)
Excerpt: The binding of anti-FZD5 Fabs to cell surface-expressed Frizzled protein was further determined for each member of the Frizzled family via flow cytometry and immunofluorescence analysis of a panel of 10 CHO cell lines, each ectopically over-expressing the extracellular cysteine-rich domain (CRD) of a different Frizzled protein family member.

HPAFII cells = assay: Effect of anti-FZD5 Fabs on proliferation of pancreatic cancer cell lines (percent growth inhibition); assay type: cell-based, human; conditions: for percent growth inhibition, HPAFII 2 μg/ml: Fab 2 μg/ml; for percent growth inhibition, HPAFII 10 μg/ml: Fab 10 μg/ml
Experimental: (§1) The effect of presently disclosed anti-FZD5 Fabs on proliferation of RNF43 loss-of-function mutant pancreatic cancer cell lines HPAFII, PATU8988S and ASPC-1; and on pancreatic cancer cell line RWP1, was tested at […] and 10 μg/ml.

ASPC-1 cells = assay: as above; assay type: cell-based, human; conditions: Fab 10 μg/ml
Experimental: as §1

PATU8988S cells [2] = assay: as above; assay type: cell-based, human; conditions: Fab 10 μg/ml
Experimental: as §1

RWP1 cells = assay: as above; assay type: cell-based, human; conditions: Fab 10 μg/ml
Experimental: as §1

FZD9 CRD = target: T1, FZD9 CRD; assay: Immunofluorescence of anti-FZD5 Fab binding to CHO cells overexpressing Frizzled CRD; design: key: −: no binding; +: very weak binder; ++: weak binder; +++: good binder; ++++: very good binder
Procedure, shortened: (§2)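 CHO cell lines each displaying a myc-tagged Frizzled CRD on the plasma membrane via GPI anchor. Recombinant anti-FZD5 Fab binding detected by immunofluorescence and flow cytometry.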

FZD5 CRD = target: T2, FZD5 CRD; assay: as above; design: key: −: no binding; +: very weak binder; ++: weak binder; +++: good binder; ++++: very good binder
Procedure, shortened: as §2

FZD1 CRD = target: T3, FZD1 CRD (Homo sapiens, UniProt Q9UP38); assay: as above; design: key: −: no binding; +: very weak binder; ++: weak binder; +++: good binder; ++++: very good binder
T3 construct: D112-P238; GPI anchor signal (C); expressed in transfected cells; host or cells: CHO cells, lentiviral pLenti-puro
Procedure, shortened: as §2

PATU8988S cells [3] = assay: Effect of anti-FZD5 Fabs on proliferation of pancreatic cancer cell lines (percent growth inhibition); assay type: cell-based, human; conditions: Fab 2 μg/ml

Molecule | Immunofluorescence binding, Frizzled CRD overexpressed on CHO cells: FZD9 (FZD9 CRD) | Immunofluorescence binding, Frizzled CRD overexpressed on CHO cells: FZD5 (FZD5 CRD) | Immunofluorescence binding, Frizzled CRD overexpressed on CHO cells: FZD1 (FZD1 CRD) | Median fluorescence, Frizzled CRD overexpressed on CHO cells: None [1] | percent growth inhibition, HPAFII 2 μg/ml (HPAFII cells) | percent growth inhibition, HPAFII 10 μg/ml (HPAFII cells) | percent growth inhibition, ASPC-1 10 μg/ml (ASPC-1 cells) | percent growth inhibition, PATU8988s 10 μg/ml (PATU8988S cells [2]) | percent growth inhibition, RWP1 10 μg/ml (RWP1 cells) | percent growth inhibition, PATU8988s 2 μg/ml (PATU8988S cells [3])
Fab-2927: anti-FZD5 Fab with antibody variable region Fv-2927; CDR SEQ ID NOs: 35, 36, 66, 104, 142, 174 (antibody, V domains shown) VH: EVQLVESGGGLVQPGGSLRLSCAASGFNIYYSSMHWVRQAPGKGLEWVASIYPSYGYTSYADSVKGRFTISADTSKNTAYLQMNSLRAEDTAVYYCARYGYYGFDYWGQGTLVTVSS VL: DIQMTQSPSSLSASVGDRVTITCRASQSVSSAVAWYQQKPGKAPKLLIYSASSLYSGVPSRFSGSRSGTDFTLTISSLQPEDFATYYCQQWGSHGYLITFGQGTKVEIK | − | ++++ | +++ | 3.79 | 6.46% | −7.63% | 31.00% | −23.95% | 70.38% | −15.15%
Fab-2919: anti-FZD5 Fab with antibody variable region Fv-2919; CDR SEQ ID NOs: 35, 36, 58, 97, 134, 155 (antibody, V domains shown) VH: EVQLVESGGGLVQPGGSLRLSCAASGFNISYSYIHWVRQAPGKGLEWVASIYSSSGSTSYADSVKGRFTISADTSKNTAYLQMNSLRAEDTAVYYCARGAIDYWGQGTLVTVSS VL: DIQMTQSPSSLSASVGDRVTITCRASQSVSSAVAWYQQKPGKAPKLLIYSASSLYSGVPSRFSGSRSGTDFTLTISSLQPEDFATYYCQQWYSSGHVLITFGQGTKVEIK | − | ++++ | − | 3.08 | 16.25% | 36.80% | 35.99% | −11.49% | 22.54% | −7.74%
Fab-2920: anti-FZD5 Fab with antibody variable region Fv-2920; CDR SEQ ID NOs: 35, 36, 59, 98, 135, 170 (antibody, V domains shown) VH: EVQLVESGGGLVQPGGSLRLSCAASGFNISYYYIHWVRQAPGKGLEWVASIYPSSGSTSYADSVKGRFTISADTSKNTAYLQMNSLRAEDTAVYYCARGGMDYWGQGTLVTVSS VL: DIQMTQSPSSLSASVGDRVTITCRASQSVSSAVAWYQQKPGKAPKLLIYSASSLYSGVPSRFSGSRSGTDFTLTISSLQPEDFATYYCQQWFAGALITFGQGTKVEIK | − | ++++ | − | 3.37 | 29.48% | 32.93% | 40.69% | −5.60% | −3.09% | 6.20%
Fab-2921: anti-FZD5 Fab with antibody variable region Fv-2921; CDR SEQ ID NOs: 35, 36, 60, 98, 136, 162 (antibody, V domains shown) VH: EVQLVESGGGLVQPGGSLRLSCAASGFNISYYYIHWVRQAPGKGLEWVASIYPSSGSTSYADSVKGRFTISADTSKNTAYLQMNSLRAEDTAVYYCARGAMDYWGQGTLVTVSS VL: DIQMTQSPSSLSASVGDRVTITCRASQSVSSAVAWYQQKPGKAPKLLIYSASSLYSGVPSRFSGSRSGTDFTLTISSLQPEDFATYYCQQWYAGSLITFGQGTKVEIK | − | ++++ | − | 3.22 | 30.70% | 44.23% | 47.95% | −16.29% | −0.10% | −1.56%
Fab-2924: anti-FZD5 Fab with antibody variable region Fv-2924; CDR SEQ ID NOs: 35, 36, 63, 101, 139, 153 (antibody, V domains shown) VH: EVQLVESGGGLVQPGGSLRLSCAASGFNISYSYIHWVRQAPGKGLEWVASIYSYYSSTSYADSVKGRFTISADTSKNTAYLQMNSLRAEDTAVYYCARGALDYWGQGTLVTVSS VL: DIQMTQSPSSLSASVGDRVTITCRASQSVSSAVAWYQQKPGKAPKLLIYSASSLYSGVPSRFSGSRSGTDFTLTISSLQPEDFATYYCQQWYSGHSLITFGQGTKVEIK | − | ++++ | − | 4.1 | −10.43% | −5.35% | 16.29% | −21.08% | 48.95% | −16.11%

More lines, main results first:

Immunofluorescence binding, Frizzled CRD overexpressed on CHO cells: FZD9 (FZD9 CRD) | Immunofluorescence binding, Frizzled CRD overexpressed on CHO cells: FZD5 (FZD5 CRD) | Immunofluorescence binding, Frizzled CRD overexpressed on CHO cells: FZD1 (FZD1 CRD) | Molecule | Median fluorescence, Frizzled CRD overexpressed on CHO cells: None [1] | percent growth inhibition, HPAFII 2 μg/ml (HPAFII cells) | percent growth inhibition, HPAFII 10 μg/ml (HPAFII cells) | percent growth inhibition, ASPC-1 10 μg/ml (ASPC-1 cells) | percent growth inhibition, PATU8988s 10 μg/ml (PATU8988S cells [2]) | percent growth inhibition, RWP1 10 μg/ml (RWP1 cells) | percent growth inhibition, PATU8988s 2 μg/ml (PATU8988S cells [3])
− | ++++ | − | Fab-2936: anti-FZD5 Fab with antibody variable region Fv-2936; CDR SEQ ID NOs: 35, 36, 75, 112, 151, 179 (antibody, V domains shown) VH: EVQLVESGGGLVQPGGSLRLSCAASGFNISYYYMHWVRQAPGKGLEWVASIYSSSGSTSYADSVKGRFTISADTSKNTAYLQMNSLRAEDTAVYYCARAAMDYWGQGTLVTVSS VL: DIQMTQSPSSLSASVGDRVTITCRASQSVSSAVAWYQQKPGKAPKLLIYSASSLYSGVPSRFSGSRSGTDFTLTISSLQPEDFATYYCQQWYAASLITFGQGTKVEIK | 2.81 | −0.56% | 12.21% | 22.02% | −23.52% | −5.97% | −8.03%
− | ++++ | − | Fab-2929: anti-FZD5 Fab with antibody variable region Fv-2929; CDR SEQ ID NOs: 35, 36, 68, 106, 144, 162 (antibody, V domains shown) VH: EVQLVESGGGLVQPGGSLRLSCAASGFNISYYYIHWVRQAPGKGLEWVASIYPSSSSTSYADSVKGRFTISADTSKNTAYLQMNSLRAEDTAVYYCARGAMDYWGQGTLVTVSS VL: DIQMTQSPSSLSASVGDRVTITCRASQSVSSAVAWYQQKPGKAPKLLIYSASSLYSGVPSRFSGSRSGTDFTLTISSLQPEDFATYYCQQWYSSYGLITFGQGTKVEIK | 3.19 | 20.20% | 33.42% | 41.25% | −27.58% | 2.21% | −24.05%

Source: US20210253718A1, “FRIZZLED5 PROTEIN-BINDING AGENTS” (Modmab Therapeutics Corporation, priority 2016, published 2021)
